Measurements: PMC5339894, “G196 epitope tag system: a novel monoclonal antibody, G196, recognizes the small, soluble peptide DLVPR with high affinity” (Scientific Reports, 2017)
Where no end group is shown, it is not given here.

What was measured:
mAb G196 = test: Western blot epitope mapping of bacterially expressed GST proteins with mAb G196; assay type: binding, mouse; conditions: purified or bacterially expressed GST proteins, SDS-PAGE, denaturing conditions
Protocol: To confirm that the G196 epitope is located on the C-terminal extension of the 4T-2 fragment, and to further determine the precise location of the G196 mAb epitope, double-stranded oligonucleotides encoding peptides containing the C-terminal extension were inserted into the BamHI/EcoRI restriction sites within the pGEX-6P-1 vector. Total protein lysates were prepared from Escherichia coli that had been transformed with individual GST fusion protein constructs.
All short 4T-2 fragments were generated by annealing complementary oligos. The oligos used to synthesize the indicated fragments are summarized (Fasmac, Kanagawa, Japan) in Supplementary Table 2. Annealing reaction mixtures contained equimolar amounts of each oligo and the reactions were performed in a thermal cycler, with initial denaturation at 98 °C for 3 min, followed by a temperature decrease of 2 °C every 20 s down to 4 °C to allow the oligos to anneal slowly. The oligos contained the BamHI/EcoRI restriction sites and the 4T-2 fragments were cloned into these restriction sites within the pGEX-6P-1 vector (GE Healthcare, Buckinghamshire, England).
A fragment of the GST gene, encoding residues 2–212, was prepared by polymerase chain reaction (PCR) amplification using the Pfu polymerase (BioAcademia) and the pGEX-6P-1 plasmid as the template. […]

[1] = tested on: anti-FLAG M2 mAb affinity column; conditions: mild pH (pH 3.5–4.4); cited from earlier work
Source text: Previously, we studied the subcellular localization of myocardin-related transcription factor (MRTF)-B, a shuttle protein between the nucleus and cytoplasm that is expressed in response to various stimuli.

[2] = molecular target: T1, synthetic peptide GSDLVPRGS (synthetic); test: ITC; VP-ITC, 25 C; cell: 25 uM G196 Fab in 20 mM Tris-HCl (pH 8.0), 150 mM NaCl; peptide (500 uM) injected; single-site model; conditions: both partners purified
T1 construct: source: synthetic peptide (Tufts University Core Facility)
T1 chain: GSDLVPRGS

With “6P-12: GST fusion protein with C-terminal extension fragment inserted in pGEX-6P-1 ({GST}-SDLVPRGSP)” the “recognition by mAb G196 in Western blot” value (mAb G196) was “detected”.

For `N=C(N)NCCC[C@H](N)C(=O)O` [Arg], the “dissociation of FLAG-tagged proteins from column” value [1] is listed as “effectively dissociate FLAG-tagged proteins”.

B1: G196 antigen binding fragment (Fab) (Fab, V domains shown)
VH: QVKLQESGAELVKPGASVKLSCKASGYTFTNYWMHWVKLRPGQGFEWIGEINPSNGGSNYNEKFKRKATLTVDKSSSTAYMQLSSLTSEDSAVFYCSIWDSYFDYWGQGTTLTVSS
VL: NIVMTQSPKSMSMSVGERVTLTCKASENVVTYVSWYQQKPEQSPKLLIYGASNRYTGVPDRFTGSGSATDFTLTISSVQAEDLADYHCGQGYSYPYTFGGGTKLEIK
notes: Fab part of the heavy chain of m1; chain in PDB 5H2B; as the light chain of m1; also called G196 Fab; G196 IgG Fab; source: purified mAb G196 IgG fragmented using papain, Fab purified by protein A chromatography
In the case of B1, the Kd [2] is reported as 1.25 ± 0.77 nM, the dH [2] is reported as -15.3 kcal/mol and the “stoichiometry N” value [2] is reported as 1.2 ± 0.05.
